Literature values as cited in US20020188108.

Target: T1, IF3-His6 (translation initiation factor 3) (Escherichia coli) (UniProt P0A707)
T1 sequence: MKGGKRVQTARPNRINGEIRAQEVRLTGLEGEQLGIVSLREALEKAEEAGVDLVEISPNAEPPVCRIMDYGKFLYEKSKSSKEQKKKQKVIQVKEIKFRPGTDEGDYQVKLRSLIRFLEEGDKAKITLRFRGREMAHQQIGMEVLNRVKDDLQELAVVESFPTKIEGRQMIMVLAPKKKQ
Conditions: CITED Tapprich et al. 1989

For 16S rRNA G791A in 30S subunit, the binding signal (fold reduction) is listed as 10.
